# Measurements from PMC5943514, “Substrate specificity of human MCPIP1 endoribonuclease” (Scientific Reports, 2018).
# T1: MCPIP1 D141N (Regnase-1), full length (Homo sapiens, UniProt Q5D1E8 1-599, D141N)
# T1 sequence: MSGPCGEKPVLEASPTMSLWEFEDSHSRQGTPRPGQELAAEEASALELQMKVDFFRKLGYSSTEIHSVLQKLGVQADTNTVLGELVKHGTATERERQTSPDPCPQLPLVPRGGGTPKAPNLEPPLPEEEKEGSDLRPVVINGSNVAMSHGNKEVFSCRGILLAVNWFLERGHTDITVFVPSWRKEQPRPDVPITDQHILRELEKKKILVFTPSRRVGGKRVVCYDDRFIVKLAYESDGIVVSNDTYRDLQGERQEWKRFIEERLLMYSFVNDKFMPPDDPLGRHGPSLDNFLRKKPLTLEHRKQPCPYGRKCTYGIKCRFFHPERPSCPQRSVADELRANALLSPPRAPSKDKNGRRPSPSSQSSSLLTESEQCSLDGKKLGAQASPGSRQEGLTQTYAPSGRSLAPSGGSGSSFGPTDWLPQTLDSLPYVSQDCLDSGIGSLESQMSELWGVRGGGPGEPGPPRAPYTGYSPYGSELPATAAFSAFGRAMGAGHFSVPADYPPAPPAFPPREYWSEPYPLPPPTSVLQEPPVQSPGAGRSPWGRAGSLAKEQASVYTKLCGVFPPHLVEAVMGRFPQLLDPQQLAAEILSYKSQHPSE
# Molecular target: T1, MCPIP1 D141N (Regnase-1), full length
# Test: EMSA; apparent Kd, Hill analysis; 1% agarose, TBE; 25 mM Tris-HCl pH 7.9, 150 mM NaCl, 5% glycerol, 2.5 mM MgCl2, 1 mM DTT, 0.5 mM EDTA, 0.05 mM ZnCl2, 25 C; oligo 2 nM (full length) or 20 nM (PIN, PIN-ZF)
# Details: protein: recombinant; tags: none stated (purified by ion exchange); chain copies: 2; label: 5' 6-FAM; hairpin
binder,measurement,value
UGUUGUUCUCUACGAAGAACUGACA (structured_RNA) [mIL-6 82-106 5'FAM],Kd,0.394 ± 0.045 µM
